From PMC3430601, “Characterization of β-N-acetylhexosaminidase (LeHex20A), a member of glycoside hydrolase family 20, from Lentinula edodes (shiitake mushroom)” (AMB Express, 2012)

How the values were obtained:
purified protein [1] = substrate: CC(=O)N[C@H]1[C@H](Oc2ccc([N+](=O)[O-])cc2)O[C@H](CO)[C@@H](O)[C@@H]1O; assay: purified protein; type: biochemical, Lentinula edodes; conditions: 20 mM sodium acetate pH 4.2, 37 °C, 15 min
purified protein [2] = substrate: CC(=O)N[C@H]1[C@H](Oc2ccc([N+](=O)[O-])cc2)O[C@H](CO)[C@H](O)[C@@H]1O; assay: purified protein; type: biochemical, Lentinula edodes; conditions: 20 mM sodium acetate pH 4.2, 37 °C, 15 min

B1: LeHex20A (Lentinula edodes) (protein)
chain: LWPLPTDFSTGTAALTLASDFDIDISAIPNPPQDLLDAISRTKGYLQTDQLEALVVDRGASYNQSLQNASSLVSLVLSYDSGVAGEPTSISEEAIDDIDSRVEGYTLTVPEDGSAATIKANSTLGLFRGLTTFGQLWYDLNNTTYTIEAPIAITDSPVFPYRGFMLDTARNYFPVSDILRTLDAMSWVKMTTFHWHMVDSQSFPLEVPEFPELSLNGAYGPSLVYSTNDVQTIVSYANARGIDVLPEIDTPGHTAIIAQAYPEHVACPGATPWATYANEPPAGQLRFANANTTNFTASLISSVSARFPGKYFSTGGDELNTECYAIDESTQADLNTTGKTLEQALDTFTQTVQSVLEDSGKTPVVWEEMVLDFNLTLSNNTIVMVWISSADAAAVADKGFRLVQAPSDYFYLDCGAGGWVGANPSGNSWCDPFKTWQYAYSFDPVANLTDAQAKLVIGGEHLLWTEQSHASNLDSIVWPRAAASAELFWSGPGGNISEALPRLHDVAFRMTQRGVGAIALQPLWCALRPGVCDLTA
notes: native, purified from fruiting bodies; secreted mature form, 17-residue signal peptide predicted (ORF 553 aa, mature 536 aa); N-terminus LWPLPTDFSTGTAAL; 79 kDa on SDS-PAGE (58 kDa calculated, glycosylated); GH20
B1 gave a Km (purified protein [1]) of 340 ± 10 µM, a kcat (purified protein [1]) of 335 ± 10 s⁻¹ and a kcat/Km (purified protein [1]) of 983000 M⁻¹ s⁻¹. It also gave a Km (purified protein [2]) of 430 ± 30 µM, a kcat (purified protein [2]) of 177 ± 8 s⁻¹ and a kcat/Km (purified protein [2]) of 411000 M⁻¹ s⁻¹.
